Test results: patent US7563864B2, “Prolyl endopeptidase mediated destruction of T cell epitopes in whole gluten” (Celiac Sprue Research Foundation, priority 2004, dated 2009)

Key:
TCC 387 E9 = assay: T cell clone assay, α-I specific clone; format: cell-based, human; conditions: clone 387E9; FIGS. 6A and 6B; after 60 min PEP treatment
Experimental: (§1) Prolyl endopeptidase (PEP) and Brush Border Membrane (BBM) treatment—Recombinant PEP (Sp. Act ˜40 U/mg) was added at a ratio of 200 mU/mg of the PTC-digested gluten substrate, and incubated at 37° C. for 15 min to 1 h and then heat de-activated, depending on the sample. Subsequently BBM (65 mU (DPP IV activity)/mg substrate) was added and the mixture was incubated for 1 h and heat de-activated. Control samples contained PEP and BBM buffer solutions without the enzymes.
(§2) T cell assays—The generation of polyclonal gluten-specific T cell lines derived from ex vivo gluten challenged small intestinal biopsy specimens of adult Celiac Sprue patients have been described elsewhere. For this study 14 different intestinal T cell lines derived from 13 DQ2+celiac patients were selected based on two basic criteria; effective recognition of TG2-treated digests of gluten and significant responses to at least two different gluten epitopes (Table 2). The generation of intestinal T cell clones and the epitope specificity of these clones, except TCC 387.3, has been described elsewhere (10). The TCC 387.3 recognizes a TG2-dependent epitope, defined as γ-VI that is contained within residues 62-72 (PQQPFPQQPQQ) of recombinant γ-5 gliadin. […] The proliferation in the wells was evaluated by ^3H thymidine incorporation from 48-72 hours after the addition of the T cells.

TCC 370 E3.19 = assay: T cell clone assay, α-III specific clone; format: cell-based, human; conditions: clone 370E3.19; FIGS. 6A and 6B
Experimental: as §1, §2

T cell clone 430.1.135 = assay: T cell clone assay, α-II specific clone; format: cell-based, human; conditions: FIGS. 6A and 6B
Experimental: as §1, §2

PEP activity assay = format: biochemical; conditions: recombinant PEP; pH 7.5, 37° C.
Experimental: Carboxypeptidase A: 995 μL 1.0 mM Hippuryl-L-Phe in 25 mM Tris and 500 mM NaCl, pH 7.5 was mixed with 5 μL Carboxypeptidase A (0.2 mg/ml). Absorption at 254 nm was recorded for 2′, every 10″. One unit hydrolyzes 1 μmol of Hippuryl-L-Phe per min at pH 7.5 and 25° C. Extinction coefficient 0.36 cm^2/μmol at 254 nm. PEP: To 10 μL Z-Gly-Pro-p-Nitroanilide 16.8 mg/ml in dioxane were added 70 μL dioxane, 120 μL water and 800 μL PBS buffer. This substrate solution was incubated at 37° C. for 10′; then 0.2-2 μL PEP were added and the absorption at 410 nm was recorded for 2′, every 10″. One unit hydrolyzes 1 μmol of Z-Gly-Pro-p-Nitroanilide per min at pH 7.5 and 37° C. Extinction coefficient 8.8 cm^2/μmol at 410 nm.

[1] = test system: polyclonal T cell lines derived from small intestinal biopsies of Celiac Sprue patients; assay: T cell assays, 14 polyclonal T cell lines taken together; format: cell-based, human; conditions: PEP in combination with gastric and pancreatic enzymes and brush border membrane enzymes; in most cases
Experimental: Gluten treatment with gastric and pancreatic enzymes—Wheat gluten flour (3.0 g) was added to 100 ml of water with addition of HCl to achieve a stable suspension at pH 2.0. Pepsin (Pepsin NF powder, 1:10000, 60 mg) was mixed in to the gluten suspension and the gluten-pepsin mixture was shaken constantly at 37° C. for 2 h. After the pepsin treatment had been completed, 350 mg of Na2HPO4 were added and the pH adjusted to 7.9 by addition of 0.1 M NaOH. Trypsin/Chymotrypsin (38 mg) were added and the mixture was shaken again at 37° C. for 2 h and then heated to >95° C. for 10 min. After cooling to room temperature, 74 μL of the mixture was treated with Elastase (20 μL, 1 mg/ml) and the mixture was diluted to 1.7 mg/ml using PBS buffer, pH=7.5. The mixture was maintained at 37° C. After 2 h the digested gluten suspension was heated to 95° C. for 10 minutes and cooled to room temperature. After this, 20 μL of Carboxypeptidase A were added and incubated for 2 h at 37° C., and subsequently heat deactivated. […]
T cell assays—The generation of polyclonal gluten-specific T cell lines derived from ex vivo gluten challenged small intestinal biopsy specimens of adult Celiac Sprue patients have been described elsewhere. […] The proliferation in the wells was evaluated by ^3H thymidine incorporation from 48-72 hours after the addition of the T cells.

TCC 387.3 = assay: T cell clone assay, γ-VI specific clone; format: cell-based, human; conditions: FIG. 6B
Experimental: as §1, §2

B1: PEP: Recombinant prolyl endopeptidase, Flavobacterium meningosepticum enzyme (protein, UniProt P27028 21-705, looked up)
Prolyl endopeptidase: QNSNVLKYPETKKVSHTDTYFGTQVSDPYRWLEDDRAEDTKAWVQQEVKFTQDYLAQIPFRDQLKKQLMDIWNYEKISAPFKKGKYTYFSKNDGLQAQSVLYRKDAAGKTEVFLDPNKFSEKGTTSLASVSFNKKGTLVAYSISEGGSDWNKIIILDAETKKQLDETLLDVKFSGISWLGDEGFFYSSYDKPKEGSVLSGMTDKHKVYFHKLGTKQSQDELIIGGDKFPRRYIGAYVTDDQRYLVVSAANATNGNELYIKDLKNKTDFIPIITGFDSNVNVADTDGDTLYLFTDKDAPNKRLVKTTIQNPKAETWKDVIAETSEPLEINTGGGYFFATYMKDAIDQVKQYDKNGKLVRAIKLPGSGNASGFGGEKTEKDLYYSFTNYITPPTIFKYNVTTGNSEVYQKPKVKFNPENYVSEQVFYTSSDGTKIPMMISYKKGLKKDGKNPTILYSYGGFNISLQPAFSVVNAIWMENGGIYAVPNIRGGGEYGKKWHDAGTKMQKKNVFNDFIAAGEYLQKNGYTSKEYMALSGRSNGGLLVGATMTMRPDLAKVAFPGVGVLDMLRYNKFTAGAGWAYDYGTAEDSKEMFEYLKSYSPVHNVKAGTCYPSTMVITSDHDDRVVPAHSFKFGSELQAKQSCKNPILIRIETNAGHGAGRSTEQVVAENADLLSFALYEMGIKSLK
- T cell clone response to treated gluten: destruction of the α-I epitope (TCC 387 E9): retains some activity
- T cell clone response to treated gluten: destruction of the α-III epitope (TCC 370 E3.19): almost completely destroyed at the earliest time point
- T cell clone response to treated gluten: destruction of the α-II epitope (T cell clone 430.1.135): almost completely destroyed at the earliest time point
- specific activity (Sp. Act) (PEP activity assay): ~40 U/mg
- immune response of patient derived intestinal T cells, relative to the response induced by positive controls [1]: less than 2%
- T cell clone response to treated gluten: destruction of the γ-VI epitope (TCC 387.3): persist for longer durations
